What was measured:
[1] = target: SARS-CoV-2 spike ectodomain with the wild-type sequence (S-WT), aa 15-1,213, with C-terminal thrombi (SARS-CoV-2 | bacteriophage T4) (UniProt P0DTC2); assay: AUC
[2] = target: SARS-CoV-2 spike ectodomain, prefusion trimer-stabilized form (S-2P), aa 15-1,213, with C-terminal t (SARS-CoV-2 | bacteriophage T4) (UniProt P0DTC2); assay: cryo-EM structure

| Substance | stoichiometry N [1] | stoichiometry N [2] |
| --- | --- | --- |
| SARS-CoV-2 spike ectodomain with the wild-type sequence (S-WT), aa 15-1,213, with C-terminal thrombi (from UniProt P0DTC2 15-1213) (domain or fragment) | 3 | – |
| SARS-CoV-2 spike ectodomain, prefusion trimer-stabilized form (S-2P), aa 15-1,213, with C-terminal t (from UniProt P0DTC2 15-1213) (domain or fragment) | – | 3 |

Reference: PMC7534368
